According to US20210395718A1, “NOVEL KETOSE 3-EPIMERASE” (NATIONAL UNIVERSITY CORPORATION KAGAWA UNIVERSITY, priority 2018, published 2021):
Substitutions are numbered along the chain they refer to.

B1: Ketose 3-epimerase mutant 1: amino acid-substituted mutant of SEQ ID NO: 1 (protein)
chain: MKIGCHGLVWTGRFDAEGIRYSVQKTKEAGFDLIEFPLMDPFSFDVATAKSALAEHGLSVSASLGLSEATDVSSEDPAIVKAGEELLNRALDVLAELGATEFCGVIYSAMKKYMEPATEQGLSNSKAAIGRVVDRAAGLGINVSLEVVNRYETNVLNTGRQALSYLSDVKRPNLGVHLDTYHMNIEESDMFSPVLDTAEVLKYVHIGESHRGYLGTGNVDFDNFFKALGRIGYDGPVVFESFSSAVVAPDLSRMLGIWRNLWADNEELGAHANAFIRDKLTAIKTIELH
modifications: Arthrobacter histidinolovorans
B2: Ketose 3-epimerase mutant 4: amino acid-substituted mutant of SEQ ID NO: 1 (protein)
chain: B1 chain with E101D, I129V
modifications: Arthrobacter histidinolovorans
B3: Ketose 3-epimerase mutant 3: amino acid-substituted mutant of SEQ ID NO: 1 (protein)
chain: B1 chain with S59T, V60A, N218S
modifications: Arthrobacter histidinolovorans
B4: Ketose 3-epimerase mutant 6: amino acid-substituted mutant of SEQ ID NO: 1 (protein)
chain: B1 chain with S59T, V60A, E101D, I129V, V200A
modifications: Arthrobacter histidinolovorans
B5: Ketose 3-epimerase mutant 2: amino acid-substituted mutant of SEQ ID NO: 1 (protein)
chain: B1 chain with S59T, V60A, E101D, I129V
modifications: Arthrobacter histidinolovorans
B6: Ketose 3-epimerase mutant 5: amino acid-substituted mutant of SEQ ID NO: 1 (protein)
chain: B1 chain with E101D, N218S
modifications: Arthrobacter histidinolovorans
B7: Mutant enzyme Sequence information 3: mutant having Sequence 3 (SEQ ID NO: 3), 78.5% amino acid sequence identity to Sequence 1 (protein)
chain: MNIGCHGLVWTGTFDADGIRLAVEKTKQAGFDLIEFPLMDPFSFDVAAAQAALAEHGLAVSASLGLSDETDITSSDPAVVAAGEALLLRAVDVLAELGGTHFCGVIYSAMKKYMDPVTPEGLASSRRTIARVADHAAERGVSVSLEVVNRYETNVLNTARQALAYLGEVDRPNLGIHLDTYHMNIEESDMFAPVLDAAPALRYVHIGESHRGYLGTGTVDFDTFFKALGRIGYDGPIVFESFSSAVVAPDLSRMLGIWRNLWTDNDELGAHANAYIRDKLVAVDSIRLH

Columns and labels:
[1] = tested on: ketose 3-epimerase (present enzyme, purified enzyme of wild strain); assay: Substrate specificity of ketose 3-epimerase using 8 kinds of ketohexoses; type: biochemical, Arthrobacter histidinolovorans Y586-1 strain; details: each substrate 0.1 M, phosphate buffer pH 8.0, 70° C., 10 min; epimerization activity for D-allulose = 100
Experimental: The substrate specificity of the present enzyme after purification was investigated using 8 kinds of ketohexoses. […] After a reaction at 70° C. for 10 minutes, the reaction mixture was analyzed by HPLC to measure a ketose produced by epimerization of each sugar.
Supposing that the epimerization activity for D-allulose is 100, the activity for each ketose is shown as a relative activity.

[2] = Thermal stability: residual activity after incubation at 60° C. for one hour; type: biochemical; details: crude recombinant enzyme; for Residual activity (%): after incubation at 60° C. for 1 hour
Experimental: Thermal stability of the enzyme was investigated by measuring the activity of the enzyme after incubation at 60° C. for one hour and finding its relative activity supposing that the activity at 60° C. under the reaction conditions (10 minutes) used for determining the optimum temperature in the above 2 shown in Table 2 was 100. As heat treatment conditions, the crude enzyme solution, a buffer (50 mM tris-HCl, pH 7.5), and 2 mM MgCl2 were used to give a total amount of 200 p1 and after retaining at 60° C. for one hour, the reaction mixture was cooled for 10 minutes in ice water. The residual enzyme activity was then measured by the conventional method.
The activity of each of the present enzyme (crude recombinant enzyme) and the crude enzyme of the control enzyme after incubation at 60° C. for 1 hour was measured and a relative activity of it was determined supposing that the activity at 60° C. under the reaction conditions (10 minutes) for determining the optimum temperature in the above 2 shown in Table 2 is 100. The relative activity was used as a heat resistance index of the enzyme. As heat treatment conditions, the crude enzyme solution, a buffer (50 mM tris-HCl, pH 7.5), and 2 mM MgCl2 were used to give a total amount of 200 p1 and after retaining at 60° C. for one hour, the reaction mixture was cooled for 10 minutes in ice water. The residual enzyme activity was measured by the conventional method.

[3] = Ketose 3-epimerase activity ratio (T70/T50) at reaction temperature of 70° C. to 50° C.; type: biochemical; details: crude recombinant enzyme; ratio of activity at 70° C. to activity at 50° C., 10 min reaction
Experimental: An enzyme having higher heat resistance than an amino acid substitution-free wild type enzyme can be obtained by introducing mutation into the gene of the ketose 3-epimerase of the present invention and substituting the corresponding amino acid residue with another amino acid residue by a site-directed mutagenesis operation to prepare various amino acid-substituted mutants. The heat resistance is evaluated by two indices, that is, a ketose 3-epimerase activity ratio (T70/T50) at the reaction temperatures of 70° C. to 50° C. and a residual activity after incubation at 60° C. for one hour.
Heat resistance of the present enzyme (crude recombinant enzyme) and the crude enzyme of the control enzyme was investigated by measuring an activity at 70° C. and an activity at 50° C. under the reaction conditions (10 minutes) used for determining the optimum temperature in the above 2 shown in Table 2 and finding their ratio (T70/T50).

[4] = Ketose 3-epimerase activity of crude enzyme (D-allulose to D-fructose, HPLC); type: biochemical; details: crude recombinant enzyme
Experimental: The activity of an enzyme ketose 3-epimerase before purification was obtained by measuring the preparation amount of D-fructose with D-allulose as a substrate. More specifically, an enzymatic reaction solution composed of a 50 mM tris-HCl buffer (pH 7.5), 0.1 M D-allulose, an enzyme solution, and 2 mM magnesium chloride is reacted at 70° C. for 10 minutes. The reaction mixture is boiled for 2 minutes to terminate the reaction and the solution composition after the reaction is measured by HPLC. One unit of enzyme activity is defined as an enzyme amount that epimerizes D-allulose to prepare 1 μmol of D-fructose per minute under the above-described conditions. An enzyme unit for epimerization of D-fructose into D-allulose, which is a reverse reaction, is also measured under similar conditions and defined similarly.
For the measurement of the activity of a ketose 3-epimerase as a crude enzyme and a purified enzyme, an enzyme reaction was made by performing an experiment similar to Experiment 4. An enzyme reaction was made for 10 minutes under various conditions and an enzyme amount preparing 1 μmol of D-fructose from D-allulose per minute was defined as 1 unit. After the reaction, the reaction mixture was put in a boiling liquid for 3 minutes to terminate the reaction. After deionization treatment, the D-fructose thus prepared was measured by HPLC analysis. […]

[5] = Optimum reaction temperature / relative activity at various reaction temperatures; type: biochemical; details: crude recombinant enzyme
Experimental: For the measurement of the activity of a ketose 3-epimerase as a crude enzyme and a purified enzyme, an enzyme reaction was made by performing an experiment similar to Experiment 4. An enzyme reaction was made for 10 minutes under various conditions and an enzyme amount preparing 1 μmol of D-fructose from D-allulose per minute was defined as 1 unit. After the reaction, the reaction mixture was put in a boiling liquid for 3 minutes to terminate the reaction. After deionization treatment, the D-fructose thus prepared was measured by HPLC analysis.
Reaction conditions are shown in Table 1 under which the reaction was made at various temperatures within from 50 to 80° C. to find an optimum temperature.

[6] = activity at optimum temperature = 100

Molecule	Relative activity (%) [1]	Residual activity (%) [2] [%]	T70/T50 [3]	other results
O=C(CO)[C@H](O)[C@H](O)[C@H](O)CO [D-allulose]	100.0%	–	–	–
O=C(CO)[C@H](O)[C@@H](O)[C@H](O)CO [D-sorbose]	trace	–	–	–
O=C(CO)[C@@H](O)[C@H](O)[C@H](O)CO [D-fructose]	43.4%	–	–	–
O=C(CO)[C@@H](O)[C@@H](O)[C@@H](O)CO [L-allulose]	27.1%	–	–	–
O=C(CO)[C@H](O)[C@H](O)[C@@H](O)CO [L-tagatose]	59.2%	–	–	–
O=C(CO)[C@H](O)[C@@H](O)[C@@H](O)CO [L-fructose]	trace	–	–	–
O=C(CO)[C@@H](O)[C@@H](O)[C@H](O)CO [D-tagatose]	72.2%	–	–	–
O=C(CO)[C@@H](O)[C@H](O)[C@@H](O)CO [L-sorbose]	trace	–	–	–
B1	–	74.1	2.37	–
B2	–	123.2	2.08	–
B3	–	94.5	2.11	–
B4	–	101.2	2.05	–
B5	–	83.3	2.31	–
B6	–	85.1	2.07	–
B7	–	–	2.11	Total activity per 100 mL of culture liquid (optimum reaction temperature) [4]: 1201 U; Optimum enzyme reaction temperature ([5]; 10 min, 2 mM magnesium chloride, pH 7.5): 70° ° C.; Relative activity at 60° C. (%) [5, 6]: 75.8%; Relative activity at 70° C. (%) [5, 6]: 100.0%; Relative activity at 80° C. (%) [5, 6]: 31.2%; Residual activity after incubation at 60° C. for 1 hour ([2]; activity at 60° C. (10 min reaction) = 100, unit not given): 38.2
